From patent US20260258083A1 (Amgen, published 2026) come the findings set out here.

Assay [1] concerns the target T1, scFv region of I2C.
T1 construct: also called VH-VL of I2C
Put plainly: co-crystal structure used as input for the modelling.

For assay [2], the target named is T2, FLT3xCD3 TCE SEQ ID NO 93.
T2 construct: Single-chain scFv-scFv-scFc T cell engager; also called FLT3×CD3ε TCE; FLT3_7 A8xCD3-scFc Bispecific HLE molecule
Put plainly: KinExA equilibrium in solution, KD relative to peptide concentration, TCE 125 pM.

The target in assay [3] is T2, FLT3xCD3 TCE SEQ ID NO 93. Nature of the assay: KinExA equilibrium in solution, KD relative to peptide concentration, TCE 250 pM; alias in this row reads 20 k Linear Thioether. In general terms: A kinetic exclusion assay measures how much of one partner remains free in solution.
Assay [4] has as its target T2, FLT3xCD3 TCE SEQ ID NO 93. Put plainly: KinExA equilibrium in solution, KD relative to peptide concentration, TCE 250 pM.
For assay [5], the target named is T3, Steap 1xCD3 TCE SEQ ID NO 373 + 374 + 375.
T3 construct: also called STEAP1×CD3e heterodimeric TCE; Ab-A1 Xmab2+1
Nature of the assay: KinExA equilibrium in solution, KD relative to peptide concentration, TCE 333 pM. On the procedure:
1. […] 2. […] 3. […] 4. Added 80 mM PDEA to activate the resin for thiol exchange, 10 mins, r.t. […] 5. […] 6. […] 7. […] 8.

Where no end group is shown, it is not given here. Side-chain parts run from the residue outwards. [ ]: non-standard residue; d: D form. pGlu = O=C1CC[C@@H](C(=O)O)N1

B1: pE-DGNEELK (peptide)
peptide: [pGlu]DGNEELK
notes: Position 1 is written E for pE; also called CD3ε peptide
Consider B1, for which the binding result in assay [1] is “binds”.

B2: 73135-2 (peptide)
peptide: [pGlu]DGNEELKGK-OH
modifications: also: Lys 10 side chain linked via thioether (acetamide) to 4-arm 20 kDa PEG
notes: TCE masking molecule
For B2, the results for the Kd in assay [2] and in assay [3] were 0.0122 nM and 0.153 nM, respectively.

B3: 73136-2 (peptide)
peptide: [pGlu]DGNEELKGK([acetamide‑thioether-mPEG 20 kDa])-OH
modifications: also: Lys 10 side chain linked via thioether (acetamide) to linear 20 kDa mPEG
notes: TCE masking molecule
In assay [4], B3 yielded a Kd of 0.173 nM.

B4: pEDGNEELKGC-NH2 (peptide)
peptide: [pGlu]DGNEELKGC-NH2
SMILES: CC(C)C[C@H](NC(=O)[C@H](CCC(=O)O)NC(=O)[C@H](CCC(=O)O)NC(=O)[C@H](CC(N)=O)NC(=O)CNC(=O)[C@H](CC(=O)O)NC(=O)[C@@H]1CCC(=O)N1)C(=O)N[C@@H](CCCCN)C(=O)NCC(=O)N[C@@H](CS)C(N)=O
notes: Unconjugated peptide (Conjugate column: N/A)
Regarding B4, the Kd in assay [5] is 1.59 nM.

As a reminder, the Kd is the concentration at which binding is half-saturated.
